Reference: US7087420B1, “Microbial β-glucuronidase genes, gene products and uses thereof” (Cambia, priority 1997, dated 2006)

These molecules were tested on KW1 (assay: X-GlcA staining of low-cysteine E. coli GUS muteins in KW1). Conditions: pBS backbone in KW1, staining with X-GlcA.
Type: cell-based
From the text: Single and multiple Cys muteins are constructed by site-directed mutagenesis techniques. Eight of the nine cysteine residues in E. coli GUS are changed to the corresponding residue found in human GUS based on alignment of the two protein sequences. One of the E. coli GUS cysteine residues, amino acid 463, aligns with a cysteine residue in human GUS and was not altered. The corresponding amino acids between E. coli GUS and human GUS are shown below.
The mutein GUS genes are cloned into a pBS backbone. The mutations are confirmed by diagnostic restriction site changes and by DNA sequence analysis. Recombinant vectors are transfected into KW1 and GUS activity assayed by staining with X-GlcA (5-bromo-4-chloro-3-indolyl-β-D-glucuronide).

| Molecule | GUS activity |
| --- | --- |
| C, D, E: E. coli GUS mutein, Cys 197 to Ser, Cys 253 to Glu, Cys 262 to Ser (protein, UniProt P05804 1-603, looked up, variant C197S C253E C262S) Beta-glucuronidase: MLRPVETPTREIKKLDGLWAFSLDRENCGIDQRWWESALQESRAIAVPGSFNDQFADADIRNYAGNVWYQREVFIPKGWAGQRIVLRFDAVTHYGKVWVNNQEVMEHQGGYTPFEADVTPYVIAGKSVRITVCVNNELNWQTIPPGMVITDENGKKKQSYFHDFFNYAGIHRSVMLYTTPNTWVDDITVVTHVAQDSNHASVDWQVVANGDVSVELRDADQQVVATGQGTSGTLQVVNPHLWQPGEGYLYELEVTAKSQTESDIYPLRVGIRSVAVKGEQFLINHKPFYFTGFGRHEDADLRGKGFDNVLMVHDHALMDWIGANSYRTSHYPYAEEMLDWADEHGIVVIDETAAVGFNLSLGIGFEAGNKPKELYSEEAVNGETQQAHLQAIKELIARDKNHPSVVMWSIANEPDTRPQGAREYFAPLAEATRKLDPTRPITCVNVMFCDAHTDTISDLFDVLCLNRYYGWYVQSGDLETAEKVLEKELLAWQEKLHQPIIITEYGVDTLAGLHSMYTDMWSEEYQCAWLDMYHRVFDRVSAVVGEQVWNFADFATSQGILRVGGNKKGIFTRDRKPKSAAFLLQKRWTGMNFGEKPQQGGKQ | Yes |
| A: E. coli GUS mutein, Cys 28 changed to Asn (protein, UniProt P05804 1-603, looked up, variant C28N) Beta-glucuronidase: MLRPVETPTREIKKLDGLWAFSLDRENNGIDQRWWESALQESRAIAVPGSFNDQFADADIRNYAGNVWYQREVFIPKGWAGQRIVLRFDAVTHYGKVWVNNQEVMEHQGGYTPFEADVTPYVIAGKSVRITVCVNNELNWQTIPPGMVITDENGKKKQSYFHDFFNYAGIHRSVMLYTTPNTWVDDITVVTHVAQDCNHASVDWQVVANGDVSVELRDADQQVVATGQGTSGTLQVVNPHLWQPGEGYLYELCVTAKSQTECDIYPLRVGIRSVAVKGEQFLINHKPFYFTGFGRHEDADLRGKGFDNVLMVHDHALMDWIGANSYRTSHYPYAEEMLDWADEHGIVVIDETAAVGFNLSLGIGFEAGNKPKELYSEEAVNGETQQAHLQAIKELIARDKNHPSVVMWSIANEPDTRPQGAREYFAPLAEATRKLDPTRPITCVNVMFCDAHTDTISDLFDVLCLNRYYGWYVQSGDLETAEKVLEKELLAWQEKLHQPIIITEYGVDTLAGLHSMYTDMWSEEYQCAWLDMYHRVFDRVSAVVGEQVWNFADFATSQGILRVGGNKKGIFTRDRKPKSAAFLLQKRWTGMNFGEKPQQGGKQ | Yes |
| A, B, C, D, E: E. coli GUS mutein, Cys 28, 133, 197, 253, 262 changed to Asn, Ala, Ser, Glu, Ser (protein, UniProt P05804 1-603, looked up, variant C28N C133A C197S C253E C262S) Beta-glucuronidase: MLRPVETPTREIKKLDGLWAFSLDRENNGIDQRWWESALQESRAIAVPGSFNDQFADADIRNYAGNVWYQREVFIPKGWAGQRIVLRFDAVTHYGKVWVNNQEVMEHQGGYTPFEADVTPYVIAGKSVRITVAVNNELNWQTIPPGMVITDENGKKKQSYFHDFFNYAGIHRSVMLYTTPNTWVDDITVVTHVAQDSNHASVDWQVVANGDVSVELRDADQQVVATGQGTSGTLQVVNPHLWQPGEGYLYELEVTAKSQTESDIYPLRVGIRSVAVKGEQFLINHKPFYFTGFGRHEDADLRGKGFDNVLMVHDHALMDWIGANSYRTSHYPYAEEMLDWADEHGIVVIDETAAVGFNLSLGIGFEAGNKPKELYSEEAVNGETQQAHLQAIKELIARDKNHPSVVMWSIANEPDTRPQGAREYFAPLAEATRKLDPTRPITCVNVMFCDAHTDTISDLFDVLCLNRYYGWYVQSGDLETAEKVLEKELLAWQEKLHQPIIITEYGVDTLAGLHSMYTDMWSEEYQCAWLDMYHRVFDRVSAVVGEQVWNFADFATSQGILRVGGNKKGIFTRDRKPKSAAFLLQKRWTGMNFGEKPQQGGKQ | Yes |
| I: E. coli GUS mutein, Cys 527 changed to Lys (protein, UniProt P05804 1-603, looked up, variant C527K) Beta-glucuronidase: MLRPVETPTREIKKLDGLWAFSLDRENCGIDQRWWESALQESRAIAVPGSFNDQFADADIRNYAGNVWYQREVFIPKGWAGQRIVLRFDAVTHYGKVWVNNQEVMEHQGGYTPFEADVTPYVIAGKSVRITVCVNNELNWQTIPPGMVITDENGKKKQSYFHDFFNYAGIHRSVMLYTTPNTWVDDITVVTHVAQDCNHASVDWQVVANGDVSVELRDADQQVVATGQGTSGTLQVVNPHLWQPGEGYLYELCVTAKSQTECDIYPLRVGIRSVAVKGEQFLINHKPFYFTGFGRHEDADLRGKGFDNVLMVHDHALMDWIGANSYRTSHYPYAEEMLDWADEHGIVVIDETAAVGFNLSLGIGFEAGNKPKELYSEEAVNGETQQAHLQAIKELIARDKNHPSVVMWSIANEPDTRPQGAREYFAPLAEATRKLDPTRPITCVNVMFCDAHTDTISDLFDVLCLNRYYGWYVQSGDLETAEKVLEKELLAWQEKLHQPIIITEYGVDTLAGLHSMYTDMWSEEYQKAWLDMYHRVFDRVSAVVGEQVWNFADFATSQGILRVGGNKKGIFTRDRKPKSAAFLLQKRWTGMNFGEKPQQGGKQ | No |
| B, C, D, E: E. coli GUS mutein, Cys 133, 197, 253, 262 changed to Ala, Ser, Glu, Ser (protein, UniProt P05804 1-603, looked up, variant C133A C197S C253E C262S) Beta-glucuronidase: MLRPVETPTREIKKLDGLWAFSLDRENCGIDQRWWESALQESRAIAVPGSFNDQFADADIRNYAGNVWYQREVFIPKGWAGQRIVLRFDAVTHYGKVWVNNQEVMEHQGGYTPFEADVTPYVIAGKSVRITVAVNNELNWQTIPPGMVITDENGKKKQSYFHDFFNYAGIHRSVMLYTTPNTWVDDITVVTHVAQDSNHASVDWQVVANGDVSVELRDADQQVVATGQGTSGTLQVVNPHLWQPGEGYLYELEVTAKSQTESDIYPLRVGIRSVAVKGEQFLINHKPFYFTGFGRHEDADLRGKGFDNVLMVHDHALMDWIGANSYRTSHYPYAEEMLDWADEHGIVVIDETAAVGFNLSLGIGFEAGNKPKELYSEEAVNGETQQAHLQAIKELIARDKNHPSVVMWSIANEPDTRPQGAREYFAPLAEATRKLDPTRPITCVNVMFCDAHTDTISDLFDVLCLNRYYGWYVQSGDLETAEKVLEKELLAWQEKLHQPIIITEYGVDTLAGLHSMYTDMWSEEYQCAWLDMYHRVFDRVSAVVGEQVWNFADFATSQGILRVGGNKKGIFTRDRKPKSAAFLLQKRWTGMNFGEKPQQGGKQ | Yes |
| B: E. coli GUS mutein, Cys 133 changed to Ala (protein, UniProt P05804 1-603, looked up, variant C133A) Beta-glucuronidase: MLRPVETPTREIKKLDGLWAFSLDRENCGIDQRWWESALQESRAIAVPGSFNDQFADADIRNYAGNVWYQREVFIPKGWAGQRIVLRFDAVTHYGKVWVNNQEVMEHQGGYTPFEADVTPYVIAGKSVRITVAVNNELNWQTIPPGMVITDENGKKKQSYFHDFFNYAGIHRSVMLYTTPNTWVDDITVVTHVAQDCNHASVDWQVVANGDVSVELRDADQQVVATGQGTSGTLQVVNPHLWQPGEGYLYELCVTAKSQTECDIYPLRVGIRSVAVKGEQFLINHKPFYFTGFGRHEDADLRGKGFDNVLMVHDHALMDWIGANSYRTSHYPYAEEMLDWADEHGIVVIDETAAVGFNLSLGIGFEAGNKPKELYSEEAVNGETQQAHLQAIKELIARDKNHPSVVMWSIANEPDTRPQGAREYFAPLAEATRKLDPTRPITCVNVMFCDAHTDTISDLFDVLCLNRYYGWYVQSGDLETAEKVLEKELLAWQEKLHQPIIITEYGVDTLAGLHSMYTDMWSEEYQCAWLDMYHRVFDRVSAVVGEQVWNFADFATSQGILRVGGNKKGIFTRDRKPKSAAFLLQKRWTGMNFGEKPQQGGKQ | Yes |
| A, B, C, D, E, I: E. coli GUS mutein, Cys 28, 133, 197, 253, 262, 527 changed to Asn, Ala, Ser, Glu, Ser, Lys (protein, UniProt P05804 1-603, looked up, variant C28N C133A C197S C253E C262S C527K) Beta-glucuronidase: MLRPVETPTREIKKLDGLWAFSLDRENNGIDQRWWESALQESRAIAVPGSFNDQFADADIRNYAGNVWYQREVFIPKGWAGQRIVLRFDAVTHYGKVWVNNQEVMEHQGGYTPFEADVTPYVIAGKSVRITVAVNNELNWQTIPPGMVITDENGKKKQSYFHDFFNYAGIHRSVMLYTTPNTWVDDITVVTHVAQDSNHASVDWQVVANGDVSVELRDADQQVVATGQGTSGTLQVVNPHLWQPGEGYLYELEVTAKSQTESDIYPLRVGIRSVAVKGEQFLINHKPFYFTGFGRHEDADLRGKGFDNVLMVHDHALMDWIGANSYRTSHYPYAEEMLDWADEHGIVVIDETAAVGFNLSLGIGFEAGNKPKELYSEEAVNGETQQAHLQAIKELIARDKNHPSVVMWSIANEPDTRPQGAREYFAPLAEATRKLDPTRPITCVNVMFCDAHTDTISDLFDVLCLNRYYGWYVQSGDLETAEKVLEKELLAWQEKLHQPIIITEYGVDTLAGLHSMYTDMWSEEYQKAWLDMYHRVFDRVSAVVGEQVWNFADFATSQGILRVGGNKKGIFTRDRKPKSAAFLLQKRWTGMNFGEKPQQGGKQ | No |
| C: E. coli GUS mutein, Cys 197 changed to Ser (protein, UniProt P05804 1-603, looked up, variant C197S) Beta-glucuronidase: MLRPVETPTREIKKLDGLWAFSLDRENCGIDQRWWESALQESRAIAVPGSFNDQFADADIRNYAGNVWYQREVFIPKGWAGQRIVLRFDAVTHYGKVWVNNQEVMEHQGGYTPFEADVTPYVIAGKSVRITVCVNNELNWQTIPPGMVITDENGKKKQSYFHDFFNYAGIHRSVMLYTTPNTWVDDITVVTHVAQDSNHASVDWQVVANGDVSVELRDADQQVVATGQGTSGTLQVVNPHLWQPGEGYLYELCVTAKSQTECDIYPLRVGIRSVAVKGEQFLINHKPFYFTGFGRHEDADLRGKGFDNVLMVHDHALMDWIGANSYRTSHYPYAEEMLDWADEHGIVVIDETAAVGFNLSLGIGFEAGNKPKELYSEEAVNGETQQAHLQAIKELIARDKNHPSVVMWSIANEPDTRPQGAREYFAPLAEATRKLDPTRPITCVNVMFCDAHTDTISDLFDVLCLNRYYGWYVQSGDLETAEKVLEKELLAWQEKLHQPIIITEYGVDTLAGLHSMYTDMWSEEYQCAWLDMYHRVFDRVSAVVGEQVWNFADFATSQGILRVGGNKKGIFTRDRKPKSAAFLLQKRWTGMNFGEKPQQGGKQ | Yes |
